B1: endogenous EXOSC9 (natural protein, mouse (endogenous in Neuro-2a), UniProt Q9JHI7 1-438, looked up)
chain: MKETPLSNCERRFLLRAIEEKKRLDGRQTYDYRNIRISFGTDYGCCIVELGKTRVLGQVSCELVSPKLNRATEGILFFNLELSQMAAPAFEPGRQSDLLVKLNRLLERCLRNSKCIDTESLCVVAGEKVWQIRVDLHLLNHDGNIIDAASIAAIVALCHFRRPDVSVQGEEVTLYTPEERDPVPLSIHHMPICVSFAFFQQGTYLLVDPNEREERVMDGLLVIAMNKHREICTIQSSGGIMLLKDQVFRCSKIAGVKVAEITELIQKALENDQRVRKEGGKFGFAESIANQRITAFKMETAPIDTSNIEERAEEIIAEAEPPPEVVSQPVLWTPGTAQIGDGIENSWGDLEDSEKEEEEEEGGIDEAVILDDTKMDTGEVSDIGSQGAPIVLSDSEEEEMIILEPEKNPKKIRAQTSANQKAPSKGQGKRKKKKRTAN
B2: endogenous EXOSC3 (natural protein, mouse (endogenous in Neuro-2a), UniProt Q7TQK4 1-274, looked up)
chain: MAEVLSAGPESVAGCRARAVHKVLNQVVLPGEELVLPDHEDVDGLGGAGEQPLRLNAGARPRLRVVCGPGLRRCGDRLLVTKCGRLRHKEPSGGGGGVYWVDSQQKRYVPVKGDHVIGIVIAKSGDIFKVDVGGSEPASLSYLAFEGATKRNRPNVQVGDLIYGQCVVANKDMEPEMVCIDSCGRANGMGVIGQDGLLFKVTLGLIRKLLAPDCEIVQELGKLYPLEIVFGMNGRIWVKAKTIQQTLILANVLEACEHMTTEQRKQIFARLAES
B3: endogenous EXOSC10 (natural protein, mouse (endogenous in Neuro-2a), UniProt P56960 1-887, looked up)
chain: MAPPSPREHQSAPATSATKPDAEMVLPGFPDADSFVKFALGSVVAVTKASGGLPQFGDEYDFYRSFPAFQAFCETQGDRLLQCMSRVMQYHGCRSNIKDRSKVTELEDKFDLLVDTNDVILERVGMLLDEASGVNKHQQPVLPAGLQVPKTIVSSWNRKAGEYGKKAKSETFRLLHAKNIVRPQLRFREKIDNSNTPFLPKIFVKPNARKPLPLALSKERRERPQDRPEDLDVPPALADFIHQQRTQQVEQDMFAHPYQYELDHFTPPQSVLQRPKPQLYRAVGETPCHLVSSLDELVELNEKLLGCQEFAVDLEHHSYRSFLGLTCLMQISTRTEDFIVDTLELRSDMYILNESLTDPAIVKVFHGADSDIEWLQKDFGLYVVNMFDTHQAARLLNLARHSLDHLLRLYCGVESNKQYQLADWRIRPLPEEMLSYARDDTHYLLYIYDRMRLELWERGNHQPVQLQVVWQRSRDICLKKFVKPIFTDESYLELYRKQKKHLNSQQLTAFQLLFAWRDKTARREDESYGYVLPNHMMLKIAEELPKEPQGIIACCNPVPPLVRQQINEMHLLIQQAREMPLLKSENAAGVRKSGPLPSAERLENDLFGPHDCSHAPPDNYQNTSTDGTLPLQKQPSLFTEGKEETSVDAGCLLATAVITLFSEPNTEEGGKTPLTVAQKKAQNIMQSFENPFRMFLPSLEHKAHISQAAKFDPSSKIYEISNRWKLASQVQVQKEPKEATKKKVAEQTAAREEAKEEAAAGVLEQAIPVRQQAALENATKKRERATSDLRTIEQKQEKKRLKSSKKAKDPDPPGKDFSPYDYSQSDFRAFAGDSKSKPSSQFDPNKLAPSGKKGVGAKKCKQSVGNKSMSFAVGKSDRGFRHNWPKR

What follows are binders tested against Myc-tagged mouse EXOSC5 p.Thr114Ile (mouse, UniProt Q9CRA8 1-235, T114I) (assay: co-IP).
Sequence of Myc-tagged mouse EXOSC5 p.Thr114Ile (Q9CRA8 whole entry T114I): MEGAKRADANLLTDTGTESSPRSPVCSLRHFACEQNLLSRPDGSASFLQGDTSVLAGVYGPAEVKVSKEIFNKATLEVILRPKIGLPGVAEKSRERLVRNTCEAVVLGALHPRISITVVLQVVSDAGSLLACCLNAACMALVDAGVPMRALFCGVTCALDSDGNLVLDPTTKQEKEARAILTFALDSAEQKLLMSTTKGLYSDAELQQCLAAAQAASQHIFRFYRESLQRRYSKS

| % EXOSC subunit bound relative to wild-type EXOSC5 | Binder |
| --- | --- |
| 24% | B1 |
| 28% | B2 |
| 40% | B3 |

What follows are binders tested against Myc-tagged mouse EXOSC5 p.Leu206His (mouse, UniProt Q9CRA8 1-235, L206H) (assay: co-IP).
Sequence of Myc-tagged mouse EXOSC5 p.Leu206His (Q9CRA8 whole entry L206H): as the sequence (Q9CRA8 whole entry T114I) above, with I114T, L206H counted along it

| % EXOSC subunit bound relative to wild-type EXOSC5 | Binder |
| --- | --- |
| 16% | B1 |
| 9% | B2 |
| 21% | B3 |
